Results on five molecules are retold here after patent US20160331821A1 (AGENUS, published 2016).

Assay [1] addresses T1, recombinant human Hsc70 (Genbank Accession No. P11142.1) (human, UniProt P11142 1-646, limits assumed).
T1 construct: also called rhHsc70; rh-Hsc70
The assay can be described thus: size exclusion chromatography after incubating peptide with Hsc70 in PBS, 37 C, 1 h, 4:1 molar excess peptide:Hsc70. The protocol:
Four peptides (Table 9) containing a phosphorylated serine residue were synthesized to 95% purity (GenScript, Cambridge, Mass.). […] These peptides were individually incubated with Hsc70 in PBS at 37° C. for 1 hour at a 4:1 molar excess (peptide:Hsc70) to form non-covalent Hsc70-peptide complexes. After incubation, the complexes were analyzed by SEC to quantify the proportion of Hsc70 molecules loaded with peptide.

Assay [2] concerns the target T2, recombinant human Hsc70 (Genbank Accession No. P11142.1) (Biomay AG) (human, UniProt P11142 1-646, limits assumed).
T2 construct: Resolves on SEC as a monomeric and an oligomeric form; also called rhHsc70; rh-Hsc70
Kind of assay: size exclusion chromatography; Hsc70:peptide molar ratio 1:2, same result at 1:5. How it is done:
Standard size exclusion chromatography was carried out using 7 μM of recombinant human Hsc70 (Genbank Accession No. P11142.1) (Biomay AG) in a reaction buffer containing 20 mM HEPES and 200 mM KCL in a final volume of 50 μl. Reactions were incubated at 37° C. for 1 or 2 hours and centrifuged 2 min at 13000 RPM. Reaction products (10 μg) were resolved on a TSKgel SuperSW3000, 4 μm particle size, 25 nm pore size gel filtration chromatography column (Tosoh Bioscience). […] The percentage of Hsc70 complexed with peptide in each reaction mixture was calculated by measuring the surface area of the appropriate peak.
The comparative effect of placing the high affinity Hsc70 binding sequence at the N- and C-terminus of the ovalbumin peptide, linked via the FFRK (SEQ ID NO:447) linker in both cases, was also tested. […] The sequence of the test peptide with the C-terminal high affinity Hsc70 binding sequence was […] (SEQ ID NO:449), and the sequence of the test peptide with N-terminal high affinity Hsc70 binding sequence was […] (SEQ ID NO:450).
In general terms: SEC sorts molecules by how far they enter the pores of the column.

Square brackets hold non-standard residues; d marks the D form. Ends that are not written are not given here. pS = N[C@@H](COP(=O)(O)O)C(=O)O

T1 sequence (P11142 whole entry, one chain of several): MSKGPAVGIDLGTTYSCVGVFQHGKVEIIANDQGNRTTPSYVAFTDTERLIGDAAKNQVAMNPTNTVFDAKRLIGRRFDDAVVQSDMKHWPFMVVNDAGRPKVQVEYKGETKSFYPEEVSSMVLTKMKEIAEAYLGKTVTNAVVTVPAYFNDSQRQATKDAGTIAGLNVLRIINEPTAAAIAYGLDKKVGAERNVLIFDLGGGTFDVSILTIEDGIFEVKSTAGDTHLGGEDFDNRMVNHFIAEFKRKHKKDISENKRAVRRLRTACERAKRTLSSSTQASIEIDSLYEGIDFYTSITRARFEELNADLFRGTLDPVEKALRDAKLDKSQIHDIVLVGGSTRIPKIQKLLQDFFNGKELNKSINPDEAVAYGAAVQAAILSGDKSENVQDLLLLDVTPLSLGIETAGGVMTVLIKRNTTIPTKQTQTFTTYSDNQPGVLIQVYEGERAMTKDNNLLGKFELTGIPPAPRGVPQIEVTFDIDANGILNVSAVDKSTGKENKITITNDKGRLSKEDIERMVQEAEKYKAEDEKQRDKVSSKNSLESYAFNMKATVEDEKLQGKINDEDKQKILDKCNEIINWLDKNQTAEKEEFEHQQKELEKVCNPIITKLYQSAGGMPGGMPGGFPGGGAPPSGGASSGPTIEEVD
T2 sequence (P11142 whole entry, one chain of several): as above

B1: RVA{pSer}PTSGVFFRKNLLRLTG (IRS-2 antigen phosphopeptide epitope with C-terminal FFRK linker and high affinity HSP binding sequence) (peptide)
peptide: RVA[pS]PTSGVFFRKNLLRLTG
With B1, in assay [1], the “Percentage of Hsc70 loaded with peptide” value is 75%.

B2: NLLRLTGFFRKGLLG{pSer}PVRA (CDC25 antigen phosphopeptide epitope with N-terminal high affinity HSP binding sequence and FFRK linker) (peptide)
peptide: NLLRLTGFFRKGLLG[pS]PVRA
As for B2, in assay [1], the “Percentage of Hsc70 loaded with peptide” value worked out at 41%.

B3: chicken ovalbumin peptide SIINFEKL fused at its N-terminus via the linker FFRK to the high affinity Hsc70 binding sequence NLLRLTG (NLLRLTGFFRKSIINFEKL) (peptide)
peptide: NLLRLTGFFRKSIINFEKL
Take B3: the binding result in assay [2] was “binds”.

B4: GLLG{pSer}PVRAFFRKNLLRLTG (CDC25 antigen phosphopeptide epitope with C-terminal FFRK linker and high affinity HSP binding sequence) (peptide)
peptide: GLLG[pS]PVRAFFRKNLLRLTG
Turning to B4, the “Percentage of Hsc70 loaded with peptide” value in assay [1] was determined as 74%.

B5: NLLRLTGFFRKRVA{pSer}PTSGV (IRS-2 antigen phosphopeptide epitope with N-terminal high affinity HSP binding sequence and FFRK linker) (peptide)
peptide: NLLRLTGFFRKRVA[pS]PTSGV
Consider B5, for which the “Percentage of Hsc70 loaded with peptide” value in assay [1] worked out at 34%.
